Assay results: US20250163176A1, “MONOCLONAL ANTIBODY AGAINST TROP2 AND USE THEREOF” (INSTITUTE OF MEDICAL BIOTECHNOLOGY, CHINESE ACADEMY OF …, priority 2022, published 2025)

T1: Trop2 antigen (Homo sapiens, UniProt P09758)
T1 sequence (P09758 27-323): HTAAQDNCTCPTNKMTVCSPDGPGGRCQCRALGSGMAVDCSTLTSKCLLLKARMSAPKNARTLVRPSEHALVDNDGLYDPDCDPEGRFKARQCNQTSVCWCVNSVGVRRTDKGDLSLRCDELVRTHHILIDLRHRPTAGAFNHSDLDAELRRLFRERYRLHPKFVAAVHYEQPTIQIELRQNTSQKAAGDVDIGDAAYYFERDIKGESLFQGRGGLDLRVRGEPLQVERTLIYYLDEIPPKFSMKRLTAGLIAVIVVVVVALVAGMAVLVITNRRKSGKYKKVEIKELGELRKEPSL

T2: Trop2 (Homo sapiens, UniProt P09758)
T2 sequence (P09758 27-323): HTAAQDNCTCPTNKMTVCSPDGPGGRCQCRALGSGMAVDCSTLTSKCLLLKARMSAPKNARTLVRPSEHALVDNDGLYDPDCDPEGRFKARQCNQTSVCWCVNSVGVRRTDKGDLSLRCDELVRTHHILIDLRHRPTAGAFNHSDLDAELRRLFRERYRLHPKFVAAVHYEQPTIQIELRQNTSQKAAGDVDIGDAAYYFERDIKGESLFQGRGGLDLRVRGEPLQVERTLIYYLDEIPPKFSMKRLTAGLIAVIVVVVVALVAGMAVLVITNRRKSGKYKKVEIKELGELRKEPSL


Legend:
[1] = tested on: KYSE150; assay: cytotoxic activity against tumor cells cultured in vitro (CCK-8); assay type: cell-based; settings: KYSE150, 48 h culture
Protocol: (§1) Tumor cells in the logarithmic growth phase after subculture were selected and prepared into a single-cell suspension and cell counting was performed. The cell concentration was adjusted to 3×10^3 cells/well, and the cells were inoculated into a 96-well plate with 80 μL/well. After 24 h of incubation, 20 μL of anti-Trop2-IgG, LDM, and Anti-Trop2-IgG-LDM diluted to different concentrations were added, with three parallel wells for each concentration. After 48 h of culture, 10 μL of CCK-8 reagent was added to each well in the dark, followed by shaking for 3 min and incubation in an incubator for 1 h. The 96-well plate was taken and shaken for 2 min, and the OD value at 450 nm was measured using a microplate reader. In addition to the drug-treated groups at different concentrations, three parallel wells each for the drug-free control group and the cell-free blank group were set up.

[2] = tested on: ECA109; assay: as above; assay type: cell-based; settings: ECA109, 48 h culture
Protocol: as §1

[3] = tested on: A431; assay: as above; assay type: cell-based; settings: A431, 48 h culture
Protocol: as §1

[4] = tested on: A549; assay: as above; assay type: cell-based; settings: A549, 48 h culture
Protocol: as §1

[5] = target: T1, Trop2 antigen; assay: antibody-antigen affinity analysis by Biacore method; assay type: binding; settings: antibody coupled to CM5 chip, FIG. 6
Protocol: Amino of an anti-Trop2 antibody was coupled to a CM5 chip, with pH of 5.0, an antibody concentration of 10 μg/mL, sample injection time of 60 s, and flow rate of 10 μL/min, and a coupling amount of 378.6 RU. Trop2 antigen at different concentrations (0, 0.814, 1.628, 3.256, 6.512, 13.025, 26.05, and 52.1 μg/mL) was taken for flowing over the chip with a sample injection time of 60 s, flow rate of 30 μL/min, dissociation time of 600 s, and regeneration conditions of glycine-HCl, and pH 1.5 (100 s, 30 μL/min) to obtain Biacore affinity graphs and affinity constant. (FIG. 6)

[6] = tested on: human lung squamous cell carcinoma tumor tissues; assay: human tumor tissue chip detection; assay type: binding; settings: FIG. 12
Protocol: All tumor tissue chips used in this experiment were purchased from Shanghai Outdo Biotech Co., Ltd. The main experimental steps included: slide baking, dewaxing, antigen retrieval, endogenous peroxidase blocking, primary antibody incubation, secondary antibody incubation, diaminobenzidine (DAB) developing, hematoxylin counterstaining, and slide blocking. (FIG. 12)

[7] = target: T2, Trop2; assay: antibody titer detected by indirect ELISA; assay type: binding; settings: FIG. 2
From the text: Hybridoma cell lines for detection was continuously cultured before and after cryopreservation. The antibody titer in the cell supernatant was detected by indirect ELISA.

[8] = tested on: Trop2-positive cells HCC-827; assay: confocal immunofluorescence, endocytosis of antibody; assay type: cell-based, human; settings: HCC-827, confocal microscopy, FIG. 9
Protocol: HCC-827 cells in logarithmic growth phase were prepared into a single-cell suspension, after cell counting, which was inoculated into a cell slide at 1×10^4 cells/well/200 μL, and then incubated at 37° C. for 24 h. An anti-Trop2 antibody at 10 μg/mL, 200 μL/well, was added. For the binding of antibody to the cell surface, cells were incubated after being added with antibody IMB1636 at 4° C. for 30 min. The cells were collected for washing three times with PBS, fixed with 4% paraformaldehyde (200 μL/well) for 15 min, washed three times with PBST, permeabilized with 0.2% Triton-X100 (200 μL+100 mL PBS) for 10 min, washed three times with PBST, blocked with 5% BSA at 37° C. for 30 min. The cells were added with secondary antibody (goat anti-mouse AF488) at 3 μL+1.5 mL PBST, 200 μL/well, and incubated at 37° C. for 30 min, washed five times with PBST, stained with DAPI for 15 min, washed three times with PBST, and dropwise added with an anti-fluorescence quenching agent for observation under a confocal microscope.
For the case of endocytosis of antibody, cells were added with antibody IMB1636 and incubated at 37° C. for 2 h. […] Other steps were the same as above. Co-localization of antibody IMB1636 with lysosomes was observed. (FIG. 9)

[9] = target: T1, Trop2 antigen; assay: antibody-antigen affinity constant by ELISA; assay type: binding; settings: indirect ELISA, FIG. 7
Protocol: A Trop2 antigen was diluted to three dilutions (0.1 μg/mL, 0.2 μg/mL, and 0.4 μg/mL) and coated onto ELISA plates. An anti-Trop2 monoclonal antibody was diluted to concentrations of (1, 0.2, 0.04, 0.008, 0.0016, 0.00032, 0.000064, and 0.0000128 μg/mL). An antigen-antibody reaction curve was determined using an indirect ELISA. […] The unit of Ka is M^−1. In this formula, [Ab] represents the antibody concentration corresponding to A=½Amax when the antigen concentration is [Ag]; [Ab]t represents the antibody concentration corresponding to A=½Amax when the antigen concentration is [Ag]t; [Ag] and [Ag]t represent the antigen concentrations; and n is the dilution factor between [Ag] and [Ag]t. (FIG. 7)

[10] = tested on: tumor cell membrane that highly expresses Trop2 antigen; assay: binding ability of antibody to tumor cells by flow cytometry; assay type: cell-based; settings: FIG. 10
Protocol: BXPC-3, MDA-MB-231, and NIH 3T3 cells were separately collected at 5×10^6 cells/EP tube, washed with 100 μL of PBS containing 2% FBS pre-cooled to 4° C., and resuspended in 100 μL of PBS containing 2% FBS. Anti-Trop2 antibody at concentrations of 3, 1, 0.3, 0.1, 0.03, 0.01, and 0.003 μg/mL was separately added at 100 μL/tube, with SP2/0 ascite as a negative control. The cells were incubated at 4° C. for 1.5 h, washed with PBS containing 2% FBS, and added with 200 μL of fluorescein isothiocyanate (FITC)-labeled goat anti-mouse IgG secondary antibody (diluted 1:200) for incubation at 4° C. for 1 h in the dark. The cells were washed three times with PBS, and detected by flow cytometry. (FIG. 10)

[11] = tested on: tumor tissues; assay type: in vivo, mice
Protocol: BXPC-3, MDA-MB-231, and NIH3T3 cells were inoculated in the axilla of mice at 6×10^4 cells/mouse. When the tumor volume reached […], an anti-Trop2 antibody was labeled using a Dylight 680 antibody kit. The anti-Trop2 antibody was injected via tail vein into mice at 20 mg/kg. In vivo imaging was performed at 30 min, 1 h, 2 h, 3 h, 4 h, 6 h, 8 h, 10 h, 12 h, 14 h, 24 h, 30 h, 36 h, 48 h, 60 h, 72 h, 84 h, 96 h, 108 h, 120 h, 132 h, 144 h, 156 h, 168 h, 192 h, 216 h, 240 h, and 264 h. (FIG. 11)

[12] = tested on: BxPC-3; assay: binding ability of antibody to tumor cells by immunofluorescence; assay type: cell-based; settings: BxPC-3 highly expressing Trop2, immunofluorescence, FIG. 8
Protocol: NIH3T3, MDA-MB-231, and BXPC-3 cells were cultured on cell slides at 1×10^4 cells/well and incubated at 37° C. for 24 h. The cells after incubation were fixed with 4% paraformaldehyde for 30 min, followed by washing three times with pre-cooled PBS at 4° C., blocking with 1% BSA in PBST solution at 4° C. overnight, and adding with purified anti-Trop2 antibody at a concentration of 10 μg/mL and incubating at 4° C. overnight. An SP2/0 ascites served as a negative control. The cells were washed three times with PBST pre-cooled to 4° C., added with rhodamine-labeled goat anti-mouse IgG secondary antibody diluted 1:200 at room temperature for incubation for 1.5 h in the dark. The cells after incubation were washed three times with PBST, and one drop of 4′,6-diamidino-2-phenylindole (DAPI) (1 mg/mL) was added to each well for incubation for 10 min. Observations and photographs were taken under a fluorescence microscope. (FIG. 8)

| Molecule | IC50 [1] | IC50 [2] | IC50 [3] | IC50 [4] | ka [5] | kd [5] | binding to human tumor tissue [6] | titer of antibody [7] | endocytosis of the antibody [8] | affinity constant Ka [9] | affinity activity with tumor cell membrane [10] | targeting of tumor tissues in vivo ([11]; mice, in vivo imaging, FIG. 11) | time remaining in the tumor tissue ([11]; mouse, in vivo) | membrane-binding activity with tumor cell membrane [12] |
| --- | --- | --- | --- | --- | --- | --- | --- | --- | --- | --- | --- | --- | --- | --- |
| LDM: antitumor antibiotic lidamycin: protein LDP (SEQ ID NO:37) with bound active enediyne (AE) chromophore of Formula I (protein, bound enediyne chromophore) APAFSVSPASGLSDGQSVSVSVSGAAAGETYYIAQCAPVGGQDACNPATATSFTTDASGAASFSFVVRKSYTGSTPEGTPVGSVDCATAACNLGAGNSGLDLGHVALTFG | 0.995 ± 0.008 nM | 0.445 ± 0.034 nM | 0.007 ± 0.002 nM | 0.169 ± 0.017 nM | – | – | – | – | – | – | – | – | – | – |
| antibody: mouse-derived anti-Trop2 monoclonal antibody (IgG1, Kappa) from hybridoma Y1636-1, CGMCC No. 18167; VL SEQ ID NO:1, VH SEQ ID NO:9 (antibody, V domains shown, mouse IgG1/kappa constant regions, no entry) VH: MEWSGVFIFLLSVTADVHSQVQLQQSGAELVRPGTSVKISCKASGYTFTNYWLGWVKQRPGHGLEWIGNIFPGGGYTNYNEKFKGKAILTADTSSSTAYMQLSSLTSEDSGVYFCAREGVMDYWGQGTTLTVSS VL: MVSTPQFLVFLLFWIPASRGDILLTQSPAILSVSPGERVSFSCRASQNIGTSIHWYQQRTNGFPRLLIKYASESISGIPSRFSGSGSGTDFTLSINSVESEDIADYYCQQSYSWPFTFGSGTKLEIK | – | – | – | – | 1.057e+06 M⁻¹ s⁻¹ | 0.0007297 s⁻¹ | highly and specifically bind | 8000000 | efficiently endocytose | 3.9e+10 M⁻¹ | high affinity activity | highly target tumor tissues | over 11 days | high membrane-binding activity |
